Data published in patent publication US20200317768A1 (published 2020).

T1: cynomolgus monkey FcγRIIa3 extracellular domain with C-terminal His-tag (cynomolgus monkey)
T1 construct: also called cyno FcgRIIa3; cynoFcγRIIa3
T1 chain: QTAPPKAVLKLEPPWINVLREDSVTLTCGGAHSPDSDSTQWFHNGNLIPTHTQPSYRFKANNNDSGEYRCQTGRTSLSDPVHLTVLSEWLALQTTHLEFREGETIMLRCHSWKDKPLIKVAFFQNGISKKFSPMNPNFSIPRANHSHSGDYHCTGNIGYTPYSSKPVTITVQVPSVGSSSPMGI

T2: cynomolgus monkey FcγRIIa1 extracellular domain with C-terminal His-tag (cynomolgus monkey)
T2 construct: also called cyno FcgRIIa1; cynoFcγRIIa1
T2 chain: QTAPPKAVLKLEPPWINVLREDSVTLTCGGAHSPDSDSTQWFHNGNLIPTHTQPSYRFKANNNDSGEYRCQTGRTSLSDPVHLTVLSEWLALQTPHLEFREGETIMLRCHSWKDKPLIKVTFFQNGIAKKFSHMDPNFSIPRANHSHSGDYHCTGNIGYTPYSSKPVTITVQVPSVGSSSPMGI

T3: cynomolgus monkey FcγRIIa2 extracellular domain with C-terminal His-tag (cynomolgus monkey)
T3 construct: also called cyno FcgRIIa2; cynoFcγRIIa2
T3 chain: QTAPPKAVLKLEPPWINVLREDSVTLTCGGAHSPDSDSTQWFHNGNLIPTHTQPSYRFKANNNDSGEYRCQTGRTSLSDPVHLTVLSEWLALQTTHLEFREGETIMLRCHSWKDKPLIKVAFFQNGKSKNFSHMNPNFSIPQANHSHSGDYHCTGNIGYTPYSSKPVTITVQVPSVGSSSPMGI

T4: cynomolgus monkey FcγRIIb extracellular domain with C-terminal His-tag (cynomolgus monkey)
T4 construct: also called cyno FcgRIIb; cynoFcγRIIb
T4 chain: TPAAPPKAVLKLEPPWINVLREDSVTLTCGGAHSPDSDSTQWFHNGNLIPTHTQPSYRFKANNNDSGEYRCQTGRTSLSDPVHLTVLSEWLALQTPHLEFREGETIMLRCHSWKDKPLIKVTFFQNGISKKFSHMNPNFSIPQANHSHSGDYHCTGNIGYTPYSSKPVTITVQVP

T5: cynomolgus monkey FcγRIIIaS extracellular domain with C-terminal His-tag (cynomolgus monkey, UniProt Q8SPW2 21-206 at identity 1.00))
T5 construct: also called cyno FcgRIIIaS; cynoFcγRIIIaS
T5 chain: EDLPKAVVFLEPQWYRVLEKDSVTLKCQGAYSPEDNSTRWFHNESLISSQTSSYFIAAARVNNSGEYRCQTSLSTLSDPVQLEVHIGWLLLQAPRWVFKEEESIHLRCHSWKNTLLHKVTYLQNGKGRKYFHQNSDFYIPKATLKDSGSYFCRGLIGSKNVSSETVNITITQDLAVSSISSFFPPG

T6: human FcγRIIaH extracellular domain with C-terminal His-tag (human, UniProt P12318 34-217)
T6 construct: also called human FcgRIIaH; FcγRIIa (type H)
T6 sequence: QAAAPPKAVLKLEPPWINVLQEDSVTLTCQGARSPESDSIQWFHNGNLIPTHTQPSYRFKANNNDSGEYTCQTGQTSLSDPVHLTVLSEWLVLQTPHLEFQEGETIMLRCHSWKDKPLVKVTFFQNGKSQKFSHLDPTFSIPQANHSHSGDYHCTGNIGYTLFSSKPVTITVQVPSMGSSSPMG

T7: human FcγRIIaR extracellular domain with C-terminal His-tag (human, UniProt P12318 34-217)
T7 construct: also called human FcgRIIaR; FcγRIIa (type R)
T7 chain: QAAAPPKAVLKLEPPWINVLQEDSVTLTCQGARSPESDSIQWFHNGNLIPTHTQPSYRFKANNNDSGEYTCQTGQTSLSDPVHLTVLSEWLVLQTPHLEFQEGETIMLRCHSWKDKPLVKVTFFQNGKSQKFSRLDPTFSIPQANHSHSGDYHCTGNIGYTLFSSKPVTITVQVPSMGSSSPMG


What was measured:
[1] = biological target: T1, cynomolgus monkey FcγRIIa3 …; experiment: SPR (BIACORE); KD of SG1 / KD of variant;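 further: relative to parent M103205H795-SG1 carrying the SG1 human heavy chain constant region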
[2] = biological target: T2, cynomolgus monkey FcγRIIa1 …; experiment: SPR (BIACORE), antibody captured, FcgR analyte
[3] = biological target: T3, cynomolgus monkey FcγRIIa2 …; experiment: SPR (BIACORE), antibody captured, FcgR analyte
[4] = biological target: T1, cynomolgus monkey FcγRIIa3 …; experiment: SPR (BIACORE), antibody captured, FcgR analyte
[5] = biological target: T4, cynomolgus monkey FcγRIIb extracellular …; experiment: SPR (BIACORE), antibody captured, FcgR analyte
[6] = biological target: T5, cynomolgus monkey FcγRIIIaS …; experiment: SPR (BIACORE), antibody captured, FcgR analyte
[7] = biological target: T6, human FcγRIIaH extracellular domain …; experiment: SPR (BIACORE), antibody captured, FcgR analyte
[8] = biological target: T7, human FcγRIIaR extracellular domain …; experiment: SPR (BIACORE), antibody captured, FcgR analyte

| KD fold (SG1 = 1) [1] [fold] | Kd [2] [nM] | Kd [3] [nM] | Kd [4] [nM] | Kd [5] [nM] | Kd [6] [nM] | Kd [7] [nM] | Kd [8] [nM] | Binder |
| --- | --- | --- | --- | --- | --- | --- | --- | --- |
| 1.9 | 2500 | 2900 | 8800 | 600 | 340 | 260 | 420 | M103205H795-MY341/M103202L889-SK1 (antibody, human IgG1, kappa, Substitutions introduced into M103205H795-SG1, expressed with M103202L889-SK1 as light chain; EU numbering) heavy: QVTLKESGPVLVKPTETLTLTCTVSGIDLSHDDISWVRQAPGKGLEWVGIISYAGSTYYASWAKGRLTISKDTSKNQVVLTMTNMDPVDTATYYCARGVPAYSHGGDLWGQGTLVTVSSASTKGPSVFPLAPSSKSTSGGTAALGCLVKDYFPEPVTVSWNSGALTSGVHTFPAVLQSSGLYSLSSVVTVPSSSLGTQTYICNVNHKPSNTKVDKKVEPKSCDKTHTCPPCPAPELLLGPSVFLFPPKPKDTLMISRTPEVTCVVVDVSDEDPEVKFNWYVDGVEVHNAKTKPREELYNSTYRVVSVLTVLHQDWLNGKEYKCKVSNTALPKPIEKTISKAKGQPREPQVYTLPPSREEMTKNQVSLTCLVKGFYPSDIAVEWESNGQPENNYKTTPKVLDSDGSFFLYSKLTVDKSRWQQGNVFSCSVMHEALHNHYTQKSLSLSP light: DIVMTQSPATLSLSPGERATLSCTSSQSVYHANWLSWFQQKPGQPPKLLIYWASTLAYGVPSRFSGSGSGTDFTLTISSLQPEDAATYYCAGGYGGGRYAFGQGTKVEIKRTVAAPSVFIFPPSDEQLKSGTASVVCLLNNFYPREAKVQWKVDNALQSGNSQESVTEQDSKDSTYSLSSTLTLSKADYEKHKVYACEVTHQGLSSPVTKSFNRGEC |
| 12.1 | 2300 | 19000 | 1400 | 830 | 2500 | 340 | 200 | M103205H795-MY387/M103202L889-SK1 (antibody, human IgG1, kappa, Substitutions introduced into M103205H795-SG1, expressed with M103202L889-SK1 as light chain; EU numbering) heavy: QVTLKESGPVLVKPTETLTLTCTVSGIDLSHDDISWVRQAPGKGLEWVGIISYAGSTYYASWAKGRLTISKDTSKNQVVLTMTNMDPVDTATYYCARGVPAYSHGGDLWGQGTLVTVSSASTKGPSVFPLAPSSKSTSGGTAALGCLVKDYFPEPVTVSWNSGALTSGVHTFPAVLQSSGLYSLSSVVTVPSSSLGTQTYICNVNHKPSNTKVDKKVEPKSCDKTHTCPPCPAPELLTGPVVFLFPPKPKDTLMISRTPEVTCVVVDVSDEDPEVKFNWYVDGVEVHNAKTKPREEQYNSTYRVVSVLTVLHQDWLNGKEYKCKVSNKALPKPIEKTISKAKGQPREPQVYTLPPSREEMTKNQVSLTCLVKGFYPSDIAVEWESNGQPENNYKTTPPVLDSDGSFFLYSKLTVDKSRWQQGNVFSCSVMHEALHNHYTQKSLSLSP light: DIVMTQSPATLSLSPGERATLSCTSSQSVYHANWLSWFQQKPGQPPKLLIYWASTLAYGVPSRFSGSGSGTDFTLTISSLQPEDAATYYCAGGYGGGRYAFGQGTKVEIKRTVAAPSVFIFPPSDEQLKSGTASVVCLLNNFYPREAKVQWKVDNALQSGNSQESVTEQDSKDSTYSLSSTLTLSKADYEKHKVYACEVTHQGLSSPVTKSFNRGEC |
| 1.1 | 5200 | 5600 | 16000 | 1500 | 2500 | 810 | 1700 | M103205H795-MY386/M103202L889-SK1 (antibody, human IgG1, kappa, Substitutions introduced into M103205H795-SG1, expressed with M103202L889-SK1 as light chain; EU numbering) heavy: QVTLKESGPVLVKPTETLTLTCTVSGIDLSHDDISWVRQAPGKGLEWVGIISYAGSTYYASWAKGRLTISKDTSKNQVVLTMTNMDPVDTATYYCARGVPAYSHGGDLWGQGTLVTVSSASTKGPSVFPLAPSSKSTSGGTAALGCLVKDYFPEPVTVSWNSGALTSGVHTFPAVLQSSGLYSLSSVVTVPSSSLGTQTYICNVNHKPSNTKVDKKVEPKSCDKTHTCPPCPAPELLLGPSVFLFPPKPKDTLMISRTPEVTCVVVDVSDEDPEVKFNWYVDGVEVHNAKTKPREELYNSTYRVVSVLTVLHQDWLNGKEYKCKVSNTALPKPIEKTISKAKGQPREPQVYTLPPSREEMTKNQVSLTCLVKGFYPSDIAVEWESNGQPENNYKTTPPVLDSDGSFFLYSKLTVDKSRWQQGNVFSCSVMHEALHNHYTQKSLSLSP light: DIVMTQSPATLSLSPGERATLSCTSSQSVYHANWLSWFQQKPGQPPKLLIYWASTLAYGVPSRFSGSGSGTDFTLTISSLQPEDAATYYCAGGYGGGRYAFGQGTKVEIKRTVAAPSVFIFPPSDEQLKSGTASVVCLLNNFYPREAKVQWKVDNALQSGNSQESVTEQDSKDSTYSLSSTLTLSKADYEKHKVYACEVTHQGLSSPVTKSFNRGEC |
| 0.3 | 5100 | 8500 | 51000 | 1300 | 2600 | 370 | 1000 | M103205H795-MY342/M103202L889-SK1 (antibody, human IgG1, kappa, Substitutions introduced into M103205H795-SG1, expressed with M103202L889-SK1 as light chain; EU numbering) heavy: QVTLKESGPVLVKPTETLTLTCTVSGIDLSHDDISWVRQAPGKGLEWVGIISYAGSTYYASWAKGRLTISKDTSKNQVVLTMTNMDPVDTATYYCARGVPAYSHGGDLWGQGTLVTVSSASTKGPSVFPLAPSSKSTSGGTAALGCLVKDYFPEPVTVSWNSGALTSGVHTFPAVLQSSGLYSLSSVVTVPSSSLGTQTYICNVNHKPSNTKVDKKVEPKSCDKTHTCPPCPAPELLLGPSVFLFPPKPKDTLMISRTPEVTCVVVDVSDEDPEVKFNWYVDGVEVHNAKTKPREELYNSTYRVVSVLTVLHQDWLNGKEYKCKVSNKALPKPIEKTISKAKGQPREPQVYTLPPSREEMTKNQVSLTCLVKGFYPSDIAVEWESNGQPENNYKTTPMVLDSDGSFFLYSKLTVDKSRWQQGNVFSCSVMHEALHNHYTQKSLSLSP light: DIVMTQSPATLSLSPGERATLSCTSSQSVYHANWLSWFQQKPGQPPKLLIYWASTLAYGVPSRFSGSGSGTDFTLTISSLQPEDAATYYCAGGYGGGRYAFGQGTKVEIKRTVAAPSVFIFPPSDEQLKSGTASVVCLLNNFYPREAKVQWKVDNALQSGNSQESVTEQDSKDSTYSLSSTLTLSKADYEKHKVYACEVTHQGLSSPVTKSFNRGEC |
| 13.1 | 2200 | 1700 | 1300 | 760 | 1600 | 330 | 230 | M103205H795-MY388/M103202L889-SK1 (antibody, human IgG1, kappa, Substitutions introduced into M103205H795-SG1, expressed with M103202L889-SK1 as light chain; EU numbering) heavy: QVTLKESGPVLVKPTETLTLTCTVSGIDLSHDDISWVRQAPGKGLEWVGIISYAGSTYYASWAKGRLTISKDTSKNQVVLTMTNMDPVDTATYYCARGVPAYSHGGDLWGQGTLVTVSSASTKGPSVFPLAPSSKSTSGGTAALGCLVKDYFPEPVTVSWNSGALTSGVHTFPAVLQSSGLYSLSSVVTVPSSSLGTQTYICNVNHKPSNTKVDKKVEPKSCDKTHTCPPCPAPELLTGPIVFLFPPKPKDTLMISRTPEVTCVVVDVSDEDPEVKFNWYVDGVEVHNAKTKPREEQYNSTYRVVSVLTVLHQDWLNGKEYKCKVSNKALPKPIEKTISKAKGQPREPQVYTLPPSREEMTKNQVSLTCLVKGFYPSDIAVEWESNGQPENNYKTTPPVLDSDGSFFLYSKLTVDKSRWQQGNVFSCSVMHEALHNHYTQKSLSLSP light: DIVMTQSPATLSLSPGERATLSCTSSQSVYHANWLSWFQQKPGQPPKLLIYWASTLAYGVPSRFSGSGSGTDFTLTISSLQPEDAATYYCAGGYGGGRYAFGQGTKVEIKRTVAAPSVFIFPPSDEQLKSGTASVVCLLNNFYPREAKVQWKVDNALQSGNSQESVTEQDSKDSTYSLSSTLTLSKADYEKHKVYACEVTHQGLSSPVTKSFNRGEC |
